Measured values published in the domain aggregation screens of Martell et al. (2025).

Assay: soluble fraction after stress (log2 fold change); higher = more stays soluble; pooled small domains, quantitative proteomics
Conditions: stress: 75 degC
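Also: 20 min heating vs room temperature control held 20 min.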

Sequence | soluble fraction (log2)
HMNYTYTVPEGIRYLRADKALALAFPDHSRTALQRAFDSGLVTLRGVAIKRDQSVTALDTLEFAMPDI | -0.981
HMNYVFVLNEHGVRQTSYVVGLHADTLEKTEKLAKQTYPTSTIISGDSEMQSQFISGKAYVNGEFVDP | -0.713
HMPAFWILAVLAGGRRHGYQIMREAALSSEGLVTLKPTTLYAALERLERDGAIQQDGEEIVDGRVRRYYRI | 0.16
HMPAKDAEFTAFVRSATPTLTRTAYLLTGDRETASDLVQEAFVRTYLAWRRVRPEEATAYTRRVLVN | 0.321
HMPAPMISIQLNGEPRNVQPGISIAALVREIGLEPAKVAVERNREIVPRSTLGDVLIEAGDQLEIVHFVG | -0.45
HMPAQPEPYNNLARLYSAQGKLDQAASLLRAGLYTDPAYRALFDNLTRIYAEQAARSLSAALD | -1.1
HMPASDPNEKQILRFLTEHQVITRKETQALLDVSQSTAGRVLKAMVDNGQIKQLGGSRNTRYELPM | -0.141
HMPASGISSEIIYDGILIEENLRQLKKDKAWLMDQLKKKGISSVSEVFLATLNKGGSLYIDKY | -0.451
HMPASVSAIRKYLGGGSFKGVGPALAKRIVDAFGEYTIETIENDPKQLAKVKGVSEKMALEINTQ | -0.582
HMPAYYQKEAVLDGRASVFAYERDPSSWYFKQLIPGTKKYRTKKIQGATTLEQAKSQALDIALGLRDEP | -0.0971
HMPDDHFIRGYVTAVLEQVLKVPSIQVEVERGVVILRGDLPGEERQELLDAVSRIHGVARVEYIPL | -0.686
HMPDLSGEEQQIVDILAQRGNLQINTLVVETDIPVHKMNAILFELEMKGVVRVLAGGMYQLL | -1.02
HMPDPLVEIRSAVHSNYAGMIAMLGADNRVYLGREEHYSYQDGQPGQYDNRDGSLLFVSDQPDIYYFL | -1.17
HMPEAITLRDLKTYSKQAASGYLDDHQLVLVEKEAHSEDVPEGQVIKQKPGAGASVKPGDKVEVTFSLGPE | 0.0463
HMPEKKKYGDFVSMTEEEYGKLVSEYGQEAAKRMVEILNNYKGATGKPYKSDYLAILNWVVKRIKEE | -0.0863
HMPELFLFNPDTASAATFQALGFSARQAGVLIHFREALGGRFGSVEQFSKSYVVDSATLERLRPYMVF | -4.13
HMPEMHIYTKEGKIHITHIDENEEIKIYNPLGQIIYTGSPQDIPVLEGKGLYIIYIGKSAVEVLES | -2.2
HMPENESPEEKHARFRRFAEGLMARLDENESVRDILPELKVWLDDRELDRDDQRLARNLMLTAGKRE | 0.0151
HMPEPLTARETEVLRLLSGGYSNREIAAAMFLAEGTIKNHVSAVLLKLGVRDRTRAVLRGLELGLIQ | -2.27
HMPEPPRVGETLAALRQDRALSLDELSRQAGVSKSMLSQIERNQANPTVAVVWRLANALGVPMAELLGA | -0.272
HMPGDIRKAAILLMSLPREQAAQVLARLDPKQVEAVTIEIARLGTVTPDEQEQALKEFSQANPA | 0.0238
HMPGIDDAAVEHAERVLAQHIGPMARLLVRRTVPRAANLFDLHRRLGALIPESEPRTAFLSAVVT | 0.0954
HMPGLSQAEAQSLLIAYLAQQGRTLELIPLGQSGDVWRFSGRESDGTVVSFFMVSRTDGTISEVPVPP | -1.06
HMPGRLSRREVEVIELTARGLPAAEMAVRLGISANTIEFHRRRIMQKLGVANAAEMVRRATELGW | -2.28

Sequence | soluble fraction (log2)
HMPGRVITVMVNGKRVDLPFREEPYIFVDLFRYMDFDVERARGRIQLAINGKKAGYTDIIREGDSIEI | -2.54
HMPGTAAQARQLKAWLKENGEKPGAALPALQKAQEIYGYVPREVQQLIADALHKPLTEIYGVSTFYSQFNL | -0.566
HMPGTPADQVAELQTKVGTETKTGDMITQDDVKLLQTALDPLAKMNDRIQAAKILESKGIVTSDGNLRT | 0.0421
HMPIGENIKRLRIMHGLSQKELAQIAGVSDKAVSTWENGTKEPRMGAVQKITGYFGLKKSNLIEDNGL | -0.0452
HMPIMDSDDKYEALGIPQEWIAVVKKAGYQTVEALKAVENPNKLHQELSVMNKKEKLGLAGLTPEMVKAWL | 0.321
HMPINPKVKQIYDTLKDGGADVGSEKEFNDYFFAKGKDGYNNRKEVFNTLREGGADAGKSYEEFAGWLGL | 0.445
HMPIPIESEISRSPGQSIYAFVQQHYGRSGRSPADMRALVGLILRLNRQIRTPLLIPFGLVVVRPT | 0.335
HMPIRVGDAFESLAGVFPDEYNKALRKSTKKPVFFVPVKVEAGSGALRQKGKITFIVKDGRIDAIQIAL | -1.41
HMPISQGATVKHNANMRKGASTKYKVTGVLQEGEEVKILSQSNGWYKIQNSDNEKGWTYNTHINASDK | 0.0826
HMPKHFIDFSEGEVVSITDGPFKGFDGAISEIDNQKGKVKVMVSMFGRDTSVELDALQVKKV | 0.00647
HMPKITTIHIDPEKISKVIGPGGKTVKKIIEETGAKIDIEDTGKIFIAAVNTEAANKAIDMINGIVA | 0.101
HMPKLPIIYVLDGHVNKNALTTSGKNKVWIEHELKKHHINSIKDVLIAMTDTEGKFYYQLYD | -1.77
HMPKLSNNHMAVWQAIRSRTAKGEPSTRAVIRDDLKAAGMDTSKHFSRWLTKLIDLGMVVKDGENLSIR | -0.395
HMPKMISPAQIKAIGAKTNNIAKASGVEQAQVYQSAVAHLGINNKSTKELTSQEASKVIEYLSTL | 0.103
HMPKPMKATKITLQQEPRIRVDFTYDPLKVQQIKTISGARWSKSLKAWHIPYTKEAFNQLKKLFPNVEIEV | -1.44
HMPKSVRQSFVYSPMYRDVEYLADFLRNNNKDDSSVSASGDKLVYYGTADEIARVKSVLKGVDV | -0.00252
HMPLIPIAIELARHALPSLIGAIAGDKSEKVAKEVVDAALKTTGKTTPDEALHALQADPQLAHEYRLSLL | 0.982
HMPLKLIDVYLGRHGKKRYDVFKETGLSQQTLASANGKPAAALTGRILQAIGRTVGETPGRVLDEMLMIEQ | -1.02
HMPLLADLPNLLRKVLKQHPGRVVDVDLERGRQGREIYHVRVLQENGQVRGLFVDASTGELVS | -0.938
HMPLQLPEPMAELARNGETARLAEALKQGLDIDLRDGKGNTLLMIAAYQGRAETVAMLLKAGA | -2.29
HMPLSLESVSEGGRNDTAARIAGYLIAKGLNVDFARFFLQSWNTKNKPPLDDTEIDTIVNSIMKTHERKNQ | -0.858
HMPLTPATADAGRFVKQDRKYIRLLAKRYNFTHGDIKSEIDRVSAVLSSNGIDRVPLFLYKEYLEQYLAG | -2.04
HMPLTRSDVKRIQLWLMAHGYDIGSPDGVFGDKSNRAANAFLSQQGRSLETVTLGKLYDILEAN | -2.58
HMPMINLYQRLNLPPTASRAEIEAALAQYRSELSTAEIRGVQEWLLVNEVRHRYDAKLRQEQPSFFI | -1.08

Sequence | soluble fraction (log2)
HMPMTLGENIARLRTQKDWSQGDLADALGISRQSISKWETDTSIPELEKLIKLSELFGVTLDQLVRGE | -0.406
HMPNILLSVKDASVAISVSSKMVRLLIASGRLKAVNLGKRMTRISLQELTDFAQRQGGNVVLP | -0.123
HMPNLAAAIGARVTIRLREASGGFRDIVGTLQRFGDGVNELLNSKGQIISFSEDEIAIWREIK | -3.33
HMPNQIKQIAVNTASVSDIATIPGISFDFAKEIWEFRILRQKIGSLSELQKIEGMTASKYALIELYLHI | -3.71
HMPNSIKAPAYLHNIARIYDHVLIDVEKASSAYEKLIKKYPNHPLSINAKLYLENAFNRSDEELLNMIKEN | -0.892
HMPNYVEMLRLHEAGFSLRQIAKLVSSGRNTVTRTVNIAQEKELSYEEIAQWSSEELENMFKPD | -2.25
HMPPDIKVVGVTVASDPRASFAMLSSNGKTLSYRVNDLIEGTEYHLIKVEAAAITIATAGGQSTQIAF | -2.54
HMPPFTYHLERAKRKTVGFIVDERGVTVRAPRWVSVSEIEKMLQTKEAWIQKKLTEFHNWQKE | -3.39
HMPPHGHIVELLPEQDFGRIETGDGRLVYFHRNSVLDGDFAQLAVGDAVRFAEEMGERGPQASSVHVE | 0.0508
HMPPLKYLKVKSYLEAVAVKAESAMRMPTVRELMNQFNVSLATVNRALSELENDGVIVRRQGSGIVAAG | -0.00508
HMPPSGPWEQDPPSEAQLKPFNEAMKRTADIDVDLYEKAKKALNDGTITKGNIYDWINREDSPWVLQDGS | 0.241
HMPPSQRVNRILSLAGITSRRKADEYILEGRVTVNGEVLKEPGAKAVWGTDDIRVDGKPIPALS | 0.0835
HMPPSVAETLKRLRRHKSLSLEELAQMSGVSRSMLSQIERDATNPTVATLWRITAALGVSIDEVLGV | -2.43
HMPPTEQVYRSHVPPQYDGFPIEKYFTTRFSYQDVEEWSRQILAGKIEVNGKTALIGQILSASDLTVTRA | -0.895
HMPQETPIPKSEIQSYDEIWLEPISTDNILRNELRGWYHVKDRWVENEFGNRFYLDTYASKWLAFPS | -0.333
HMPQKIVIQKGVVIKKRERSDAWQIYITVKGKKPIRKSANTDNVEKAKQMALTLFAEKNYKVENNLPIQ | -1.17
HMPQLSNEEQKIVDALEGSDGKQINLITVETNIPMARLMSVLFEMEMRGIVKSLNGARYKLN | -1.3
HMPQTDDSEPLGKYGRMRLAYLKNQRPVLYNQMLLNGTLWPHLQDVQKTAYEWLERTMTTLLDK | 0.0585
HMPRDQQENIYLLEKGKRLYEEHLGDQRQIIGHRIMIFERILESQDHAQIRRAQSEFAEFLSHYDG | -0.8
HMPRDYYAVLEVSVSSTPVQIRQAYQRLARRYSPDVNFLDRDTEALFEEIVEAYRVLSNPTARTLYDRG | -4.52
HMPREQQENVYLLEKAKRLYEEYLGDQRQTIGHALAQFERVLESQDPAAIRRAQKEFGEFLERYDG | -0.0743
HMPREVKLPPDLLDALEASPEAKAFFLQLSYTHQKEYAQWIEEAKQEATRQRRLEKTVQMLLEGRRT | -1.27
